The target of this experiment is T1, CD26 on Rv-CD26-transduced Jurkat T cells (human, UniProt P27487 1-766).
T1 construct: whole, on cells; also called membrane CD26
Put plainly: ADA membrane binding efficiency from ADA activity left in medium after 24 h co-culture; Rv-ADA-CD3-293T/CD26-Jurkat T as maximum, 293T/Jurkat T without CD26 as background. The protocol: Next, we investigated the binding efficacy of ADA-CD3 on T cells. Jurkat-Dual (NF-KB &IRF/IFN), Jurkat-Dual transduced with Rv-CD26 (Jurkat-Dual-CD26), Jurkat-NFAT or Jurkat-NFAT transduced with Rv-CD26 (Jurkat-NFAT-CD26) reporter cell lines were co-cultured with Rv-ADA or Rv-ADA-CD3 (scFv) transduced 293 T cells for 24 hours. The cell culture medium was then used to measure ADA by ADA activity assay. ADA membrane binding efficiency was calculated using Rv-ADA-CD3-293T/CD26-Jurkat T as maximum and 293T/JurkatT W/O CD26 as background.

T1 sequence (P27487 whole entry): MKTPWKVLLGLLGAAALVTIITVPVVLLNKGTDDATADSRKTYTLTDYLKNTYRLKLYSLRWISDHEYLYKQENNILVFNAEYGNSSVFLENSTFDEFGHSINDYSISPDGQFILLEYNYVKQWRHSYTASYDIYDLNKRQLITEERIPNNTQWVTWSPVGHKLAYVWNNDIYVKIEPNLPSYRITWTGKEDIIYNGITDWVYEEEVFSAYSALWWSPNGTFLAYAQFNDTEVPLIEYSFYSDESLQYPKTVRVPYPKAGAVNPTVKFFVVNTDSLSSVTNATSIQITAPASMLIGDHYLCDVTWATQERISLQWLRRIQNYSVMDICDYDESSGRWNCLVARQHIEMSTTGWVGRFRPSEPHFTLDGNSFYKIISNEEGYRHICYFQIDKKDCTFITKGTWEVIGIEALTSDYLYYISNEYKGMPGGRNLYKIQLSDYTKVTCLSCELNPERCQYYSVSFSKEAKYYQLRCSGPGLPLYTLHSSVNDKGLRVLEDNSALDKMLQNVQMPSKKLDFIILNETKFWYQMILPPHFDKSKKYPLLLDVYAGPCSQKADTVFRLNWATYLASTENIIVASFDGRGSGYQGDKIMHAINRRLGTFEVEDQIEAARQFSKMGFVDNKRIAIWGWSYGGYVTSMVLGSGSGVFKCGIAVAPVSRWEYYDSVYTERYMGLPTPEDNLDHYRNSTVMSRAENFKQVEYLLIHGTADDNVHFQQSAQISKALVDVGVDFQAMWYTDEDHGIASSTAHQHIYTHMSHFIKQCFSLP

B1: secreted ADA (without CD3-scFv) (enzyme, human, UniProt P00813 1-363, looked up)
chain: MAQTPAFDKPKVELHVHLDGSIKPETILYYGRRRGIALPANTAEGLLNVIGMDKPLTLPDFLAKFDYYMPAIAGCREAIKRIAYEFVEMKAKEGVVYVEVRYSPHLLANSKVEPIPWNQAEGDLTPDEVVALVGQGLQEGERDFGVKARSILCCMRHQPNWSPKVVELCKKYQQQTVVAIDLAGDETIPGSSLLPGHVQAYQEAVKSGIHRTVHAGEVGSAEVVKEAVDILKTERLGHGYHTLEDQALYNRLRQENMHFEICPWSSYLTGAWKPDTEHAVIRLKNDQANYSLNTDDPLIFKSTLDTDYQMTKRDMGFTEEEFKRLNINAAKSSFLPEDEKRELLDLLYKAYGMPPSASAGQNL
notes: Secreted by Rv-ADA transduced 293 T cells in co-culture; also called ADA1; Rv-ADA
Regarding B1, the “ADA membrane binding efficiency (relative to secreted ADA-CD3)” value came out at 40%.

The values above are taken from patent US20240350546A1 (TEXAS A AND M UNIVERSITY SYSTEM, published 2024).
